Reference: paper PMC3182529 (Cell cycle (Georgetown, Tex.), 2008)

Assays:
H3S10phG12P (1–20) = H3S10phG12P (1–20) (UniProt P68431 2-21, G12P, phosphoserine at 10); assay: fluorescence polarisation
H3S10phK14acG12P (1–20) = H3S10phK14acG12P (1–20) (UniProt P68431 2-21, G12P, phosphoserine at 10; acetyl-lysine at 14); assay: fluorescence polarisation

- Kd (H3S10phG12P (1–20)): 19.9 µM
- Kd (H3S10phK14acG12P (1–20)): 40 µM
B1: 14-3-3ζ (natural protein)
chain: MDKNELVQKAKLAEQAERYDDMAACMKSVTEQGAELSNEERNLLSVAYKNVVGARRSSWRVVSSIEQKTEGAEKKQQMAREYREKIETELRDICNDVLSLLEKFLIPNASQAESKVFYLKMKGDYYRYLAEVAAGDDKKGIVDQSQQAYQEAFEISKKEMQPTHPIRLGLALNFSVFYYEILNSPEKACSLAKTAFDEAIAELDTLSEESYKDSTLIMQLLRDNLTLWTSDTQGDEAEAGEGGEN
